Values of other authors, collected in publication PMC3750086.

How the values were obtained:
PDL1 (Homo sapiens) = PDL1 (Homo sapiens) (UniProt Q9NZQ7)
CD28 (Homo sapiens) = CD28 (Homo sapiens) (UniProt P10747)

UniProt Q9NZQ7, sequence (Q9NZQ7 19-238): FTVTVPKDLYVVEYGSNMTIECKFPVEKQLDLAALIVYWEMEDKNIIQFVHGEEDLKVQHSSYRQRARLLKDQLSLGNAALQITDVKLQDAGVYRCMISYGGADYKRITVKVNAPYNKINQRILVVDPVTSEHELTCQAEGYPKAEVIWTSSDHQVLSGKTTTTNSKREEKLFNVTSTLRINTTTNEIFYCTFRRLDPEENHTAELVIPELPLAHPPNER

Kd (PDL1 (Homo sapiens)): 1400 nM | Kd (CD28 (Homo sapiens)): 4000 nM
Substance: CD80 (from UniProt P33681)
